The values that follow come from article PMC9807911, “RH5.1-CyRPA-Ripr antigen combination vaccine shows little improvement over RH5.1 in a preclinical setting” (Frontiers in Cellular and Infection Microbiology, 2022).

This assay deals with CyRPA (D29-E362; S147A, T324A, T340A) (Plasmodium falciparum 3D7, UniProt Q8IFM8 29-362, S147A | T324A | T340A). Put plainly: gel electrophoresis. The settings on record: both partners purified.

B1: RH5.1 (E26-Q526; T40A, T216A, T286A, T299A) (natural protein)
chain: ENAIKKTKNQENNLALLPIKSTEEEKDDIKNGKDIKKEIDNDKENIKTNNAKDHSTYIKSYLNTNVNDGLKYLFIPSHNSFIKKYSVFNQINDGMLLNEKNDVKNNEDYKNVDYKNVNFLQYHFKELSNYNIANSIDILQEKEGHLDFVIIPHYTFLDYYKHLSYNSIYHKSSTYGKCIAVDAFIKKINEAYDKVKSKCNDIKNDLIATIKKLEHPYDINNKNDDSYRYDISEEIDDKSEETDDETEEVEDSIQDTDSNHAPSNKKKNDLMNRAFKKMMDEYNTKKKKLIKCIKNHENDFNKICMDMKNYGTNLFEQLSCYNNNFCNTNGIRYHYDEYIHKLILSVKSKNLNKDLSDMTNILQQSELLLTNLNKKMGSYIYIDTIKFIHKEMKHIFNRIEYHTKIINDKTKIIQDKIKLNIWRTFQKDELLKRILDMSNEYSLFITSDHLRQMLYNTFYSKEKHLNNIFHHLIYVLQMKFNDVPIKMEYFQTYKKNKPLTQ
For B1, the binding result is “binds”.
